Changes are numbered by the printed parent chain.

T1: recombinant human IL-23R/Fc chimera (R&D Systems) (human, UniProt Q5VWK5 24-355)
T1 construct: Bought; also called rhIL23RFc
T1 sequence (looked up): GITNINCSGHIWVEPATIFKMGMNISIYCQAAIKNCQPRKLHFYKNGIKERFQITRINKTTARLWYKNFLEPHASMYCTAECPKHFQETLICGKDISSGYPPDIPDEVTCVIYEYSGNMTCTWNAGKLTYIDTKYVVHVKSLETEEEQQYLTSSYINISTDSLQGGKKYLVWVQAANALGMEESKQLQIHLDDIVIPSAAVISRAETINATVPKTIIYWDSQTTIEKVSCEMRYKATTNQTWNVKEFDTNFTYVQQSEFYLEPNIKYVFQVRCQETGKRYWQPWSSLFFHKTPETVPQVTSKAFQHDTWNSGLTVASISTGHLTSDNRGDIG

B1: 101-51-1A3 ATRIMER complex (designed binder)
chain: EPPTQKPKKIVNAKKDVVNTKMFEELKSRLDTLAQEVALLKEQQALQTVCLKGTKVHMKCFLAFTQTKTFHEASEDCISRGGTLSTPQTGSENDALYEYLRQSVGNEAEIWLGLNGSALTNTWVDMTGARIAYKNWEHQPVYQPGGGWGVFGENCAVLSGAANGKWFDKRCRDQLPYICQFGIV
modifications: Forms a homotrimer through the tetranectin coiled coil; one protomer is given.
notes: not shown: C-terminal tag: His/Myc (pANA4) or HA-StrepII (pANA10)
B2: 101-51-1A5 ATRIMER complex (designed binder)
chain: B1 chain with H138N, Q139G, P140H, V141E, Y142P, G145R, W148F, V150Y
modifications: Forms a homotrimer through the tetranectin coiled coil; one protomer is given.
notes: as for B1
B3: 101-51-1A10 ATRIMER complex (designed binder)
chain: B1 chain with Q139P, P140L, V141P, Y142P, G145S, W148F, V150Y
modifications: Forms a homotrimer through the tetranectin coiled coil; one protomer is given.
notes: as for B1
B4: 101-51-1A8 ATRIMER complex (designed binder)
chain: B1 chain with H138R, Q139T, V141P, Y142W, G145E, W148F, V150Y
modifications: Forms a homotrimer through the tetranectin coiled coil; one protomer is given.
notes: as for B1
B5: 101-51-1A9 ATRIMER complex (designed binder)
chain: B1 chain with H138P, Q139A, P140R, V141Q, Y142P, W148F, V150Y
B6: 101-51-1A6 ATRIMER complex (designed binder)
chain: B1 chain with H138N, Q139N, P140L, V141S, Y142A, G145R, W148F, V150Y
modifications: Forms a homotrimer through the tetranectin coiled coil; one protomer is given.
notes: as for B1
B7: 101-54-4A12 ATRIMER complex (designed binder)
chain: EPPTQKPKKIVNAKKDVVNTKMFEELKSRLDTLAQEVALLKEQQALQTVCLKGTKVHMKCFLAFTQTKTFHEASEDCISRGGTLSTPQTGSENDALYEYLRQSVGNEAEIWLGLNGSRRSGVWVDMTGARIAYKNWEPPGPAHPQGGFGVFGENCAVLSGAANGKWFDKRCRDQLPYICQFGIV
notes: also called 101-54-4Al2
B8: 101-80-5E8 ATRIMER complex (designed binder)
chain: B1 chain with H138P, Q139P, P140E, V141P, Y142L, Q143H, G145M, W148F
B9: 101-54-4B3 ATRIMER complex (designed binder)
chain: B1 chain with H138L, Q139P, V141P, Y142G, Q143H, G145Q, W148F
B10: 101-54-4B10 ATRIMER complex (designed binder)
chain: B1 chain with H138R, Q139P, V141L, W148F, V150Y
B11: 105-08-2H3 ATRIMER complex (designed binder)
chain: B1 chain with A118S, H138T, Q139E, P140I, V141T, Y142A, G145D, V150Y
modifications: ATRIMER complex: homotrimer of three copies of this chain, joined by the tetranectin coiled coil
notes: not shown: C-terminal tag: Myc/His (pANA4) or HA-StrepII (pANA10)
B12: 105-78-2D1 ATRIMER complex (designed binder)
chain: B1 chain with A118L, L119R, N121H, H138T, Q139E, P140I, V141T, Y142A, G145D, W148F
B13: 105-08-2H4 ATRIMER complex (designed binder)
chain: EPPTQKPKKIVNAKKDVVNTKMFEELKSRLDTLAQEVALLKEQQALQTVCLKGTKVHMKCFLAFTQTKTFHEASEDCISRGGTLSTPQTGSENDALYEYLRQSVGNEAEIWLGLNGSVRTDTWVDMTGARIAYKNWETEITAQPDGGFGYFGENCAVLSGAANGKWFDKRCRDQLPYICQFGIV
B14: 105-59-3A5 ATRIMER complex (designed binder)
chain: B13 chain with V118L, R119L, D121N, Y150V
modifications: Homotrimer of three identical chains (ATRIMER complex); one chain is given.
notes: as for B1
B15: 105-20-2C11 ATRIMER complex (designed binder)
chain: B13 chain with F148W
notes: as for B1
B16: 105-78-2E6 ATRIMER complex (designed binder)
chain: B13 chain with V118L, D121N, Y150V
B17: 105-20-2C4a ATRIMER complex (designed binder)
chain: B13 chain with V118A, R119K, F148W
modifications: ATRIMER complex: homotrimer of three copies of this chain, joined by the tetranectin coiled coil
notes: as for B11
B18: 105-08-2H2 ATRIMER complex (designed binder)
chain: B13 chain with V118P, R119T, F148W
B19: 105-20-2F10 ATRIMER complex (designed binder)
chain: B13 chain with V118A
notes: as for B1
B20: 105-08-2G1 ATRIMER complex (designed binder)
chain: B13 chain with V118P, R119K, D121H
B21: 105-08-2G4 ATRIMER complex (designed binder)
chain: B13 chain with V118P, D121G
B22: 105-61-4G5 ATRIMER complex (designed binder)
chain: B13 chain with V118P, R119L, D121N, Y150V
B23: 105-08-2H10 ATRIMER complex (designed binder)
chain: B13 chain with V118N, R119H
B24: 105-20-2C7 ATRIMER complex (designed binder, not shown: small tags and cut ends)
chain: B13 chain with R119T
B25: 105-20-1B4 ATRIMER complex (designed binder)
chain: B13 chain with V118S, D121N, F148W
modifications: ATRIMER complex: homotrimer of three copies of this chain, joined by the tetranectin coiled coil
notes: as for B11
B26: 105-08-2H12 ATRIMER complex (designed binder, not shown: small tags and cut ends)
chain: B13 chain with V118P, D121E
B27: 105-08-2G2 ATRIMER complex (designed binder)
chain: B13 chain with V118A, R119I, F148W
B28: 105-59-3B5 ATRIMER complex (designed binder)
chain: B13 chain with V118P, R119I, Y150V
B29: 105-20-2G5 ATRIMER complex (designed binder)
chain: B13 chain with V118R, F148W
B30: 105-08-2G6 ATRIMER complex (designed binder)
chain: B13 chain with V118L, R119L, F148W
B31: 105-20-1A6 ATRIMER complex (designed binder)
chain: B13 chain with V118A, R119K, D121G, F148W
B32: 105-08-2H11 ATRIMER complex (designed binder)
chain: B13 chain with V118P, F148W
notes: as for B1
B33: 105-61-4G3 ATRIMER complex (designed binder)
chain: B13 chain with V118L, Y150V
notes: also called 61-p4G3
B34: 105-20-2C4b ATRIMER complex (designed binder)
chain: B13 chain with R119K, F148W
B35: 105-08-2H6 ATRIMER complex (designed binder)
chain: B13 chain with V118P, R119V, D121G

The first assay deals with T1, recombinant human IL-23R/Fc chimera …. The assay is described as follows: SPR. The protocol:
A Biacore 3000 biosensor (GE Healthcare) was used to evaluate the interaction of human IL-23R and receptor binders. Immobilization of an anti-human IgG Fc antibody (GE Healthcare) to the CM5 chip (GE Healthcare) was performed using standard amine coupling chemistry, and this modified surface was used to capture a recombinant human IL-23R/Fc fusion protein (R&D Systems). A low-density receptor surface, less than 200 RU, was used for all of the analyses. ATRIMER™ polypeptide complex dilutions (1-500 nM) were injected over the IL-23R surface at 30 μl/min and kinetic constants were derived from the sensorgram data using the Biaevaluation software (version 3.1, GE Healthcare). Data collection was 3 minutes for the association and 5 minutes for dissociation. The anti-human IgG surface was regenerated with a 30s pulse of 3M magnesium chloride. All sensorgrams were double-referenced against an activated and blocked flow-cell as well as buffer injections.
A general note: In SPR one partner is held on a chip, and binding of the other changes the refractive index at the surface.
As usually defined, the Kd is the free concentration of one partner at which half of the binding sites on the other are occupied at equilibrium, for simple one-to-one binding. By koff is commonly meant the rate constant with which the complex falls apart. As a reminder, the kon is a measure of how fast the partners come together. Take B1: the Ka worked out at 1.77e+09 M⁻¹, the Kd was 565 pM, the koff is 0.000262 s⁻¹ and the kon was 463000 M⁻¹ s⁻¹.
For B2, the Ka worked out at 1.71e+09 M⁻¹, the Kd amounted to 584 pM, the koff came out at 0.000289 s⁻¹ and the kon turned out to be 495000 M⁻¹ s⁻¹.
For B3, in that order: 4.85e+08 M⁻¹, 2060 pM, 0.000345 s⁻¹ and 167000 M⁻¹ s⁻¹.
Turning to B4, the Ka turned out to be 6.62e+08 M⁻¹, the Kd came out at 1510 pM, the koff stood at 0.000396 s⁻¹ and the kon is 262000 M⁻¹ s⁻¹.
For the molecule B5, the Ka was 1.05e+09 M⁻¹, the dissociation constant Kd is 955 pM, the koff came to 0.000329 s⁻¹ and the kon worked out at 345000 M⁻¹ s⁻¹.
Consider B6, for which the Ka amounted to 1.34e+09 M⁻¹, the Kd was 746 pM, the koff was 0.000415 s⁻¹ and the kon stood at 557000 M⁻¹ s⁻¹.
In the case of B7, the Ka was 2.16e+09 M⁻¹, the Kd worked out at 463 pM, the koff was 0.000573 s⁻¹ and the kon is 1.24e+06 M⁻¹ s⁻¹.
As to B8, the Ka was 2.89e+09 M⁻¹, the Kd was found to be 346 pM, the koff came to 0.000391 s⁻¹ and the kon came out at 1.13e+06 M⁻¹ s⁻¹.
Consider B9, for which the Ka came out at 3.12e+09 M⁻¹, the Kd is 321 pM, the koff worked out at 0.000364 s⁻¹ and the kon amounted to 1.13e+06 M⁻¹ s⁻¹.
Consider B10, for which the Ka was 1.11e+09 M⁻¹, the Kd was determined as 897 pM, the koff amounted to 0.000429 s⁻¹ and the on-rate (kon) stood at 479000 M⁻¹ s⁻¹.

For the next assay the target is unchanged. Description: competition ELISA vs IL-23. As to the method:
Assays were performed generally as follows. Individual wells in Immulon HB2 plates were incubated overnight at 4° C. with 100 μL PBS containing 100 ng of an anti-human IgG Fc (R&D MAB 110 clone 97924). Plates were washed five times with PBS/0.05% Tween 20, and wells were incubated for 1.5 h at RT with 100 μL each of PBS containing 50 ng of recombinant human IL-23R/Fc. […] Competitor was included at a final concentration of 1 μg/mL. After incubation, plates were washed as described and wells were incubated for 40 min at RT with 100 μL each of PBS containing a 1:5000 dilution of streptavidin-HRP conjugate (Pierce catalog no. 21130). After washing, wells were incubated with 100 μL each of TMB (BioFX Lab catalog no. TMBH-1000-0) for up to 30 min at RT. Reactions were stopped with an equal volume of 0.2 M sulfuric acid.
(An ELISA detects its analyte on a solid surface through an enzyme-linked reagent.)
Consider B1, for which the “Ratio IC50 to 056-53.H4E IC50” value came out at 1.6.
Turning to B11, the “Ratio IC50 to 056-53.H4E IC50” value amounted to 2.9.
B2: the “Ratio IC50 to 056-53.H4E IC50” value stood at 1.
With B12, the “Ratio IC50 to 056-53.H4E IC50” value amounted to 1.3.
Consider B13, for which the “Ratio IC50 to 056-53.H4E IC50” value came to 5.
Still for that read-out and setting: the result for B14 reads 1.2; that for B3, 8.7.
The same measure, in the same setting: next, B15: 4.8; B16: 1.
Turning to B17, the “Ratio IC50 to 056-53.H4E IC50” value was determined as 2.9.
For the molecule B18, the “Ratio IC50 to 056-53.H4E IC50” value is 4.
For the molecule B4, the “Ratio IC50 to 056-53.H4E IC50” value stood at 3.7.
Consider B5, for which the “Ratio IC50 to 056-53.H4E IC50” value stood at 2.2.
Take B19: the “Ratio IC50 to 056-53.H4E IC50” value was 4.2.
Consider B20, for which the “Ratio IC50 to 056-53.H4E IC50” value is 2.2.
Still for that read-out and setting: next, B21: 2.5; B22: 1.
For the molecule B23, the “Ratio IC50 to 056-53.H4E IC50” value was determined as 6.5.
With B6, the “Ratio IC50 to 056-53.H4E IC50” value worked out at 2.6.
As to B24, the “Ratio IC50 to 056-53.H4E IC50” value amounted to 3.5.
B25: the “Ratio IC50 to 056-53.H4E IC50” value was 3.
Turning to B26, the “Ratio IC50 to 056-53.H4E IC50” value is 3.3.
As to B7, the “Ratio IC50 to 056-53.H4E IC50” value was determined as 1.1.
As for B8, the “Ratio IC50 to 056-53.H4E IC50” value was found to be 0.6.
On to B27, for which the “Ratio IC50 to 056-53.H4E IC50” value was 3.8.
Regarding B28, the “Ratio IC50 to 056-53.H4E IC50” value was 0.8.
As to B29, the “Ratio IC50 to 056-53.H4E IC50” value is 5.3.
For B30, the “Ratio IC50 to 056-53.H4E IC50” value is 5.2.
Take B31: the “Ratio IC50 to 056-53.H4E IC50” value is 6.6.
Same read-out and setting: next, B32: 4.3; B33: 0.8.
Regarding B9, the “Ratio IC50 to 056-53.H4E IC50” value worked out at 1.
With B10, the “Ratio IC50 to 056-53.H4E IC50” value came out at 1.4.
For B34, the “Ratio IC50 to 056-53.H4E IC50” value was found to be 4.2.
Same read-out and setting: the result for B35 reads 2.
